Tests used:
[1] = test system: MS2 coat protein; test: apparent KD of MS2 coat protein; designed switch direction (-1 OFF switch, 1 ON switch): 1; higher = weaker reporter binding; details: Eterna round: R98
Experimental: (§1)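 RNA-MaP: designed FMN/MS2 RNA switches (84 nt design region) are transcribed on-chip within common flanks and titrated with SNAP-549-labelled MS2 coat protein (about 1-3000 nM) in 100 mM Tris pH 7.5, 80 mM KCl, 4 mM MgCl2, without or with 200 uM FMN. Median apparent KD per design; activation ratio = KD,OFF / KD,ON.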

[2] = test system: MS2 coat protein; test: apparent KD of MS2 coat protein; higher = weaker reporter binding; details: Eterna round: R101
Experimental: as §1

AAAACAUACCGAGGAUAUUCAUAUAAUAAAUAAACAUGAGGAUCACCCAUUUGGCAAAAGCCUAGGGAGAAGGCGGAAUGCUAA [salish99_SSNG2_r2_119]
apparent KD of MS2 coat protein ([1]; input ligand: FMN 200 uM): 0.658 µM

AAAACAUGAGGAUCACCCAUGUAAGAAUAAUUAAUUAUAAGUGAGGAUAUAUAAAUUAUAAAAUUGUAGAAGGCACUGGGUAUC [JR_SSNG3_Sub083]
apparent KD of MS2 coat protein ([1]; input ligand: FMN 200 uM): 0.0836 µM
apparent KD of MS2 coat protein ([1]; input ligand: none): 0.071 µM

AAAGAUUUUUAAGGAUAUCAGUGGCAAAGCCACUGAGAAGGUGAGGAUCACCCAUCUACGUGACCCUGGAAACAGGGUCACGAA [#SharedSequence - ExNG1-16] (puzzle (switch architecture): Exclusion NG 1)
apparent KD of MS2 coat protein ([2]; input ligand: FMN 200 uM): 0.0969 µM
apparent KD of MS2 coat protein ([2]; input ligand: none): 0.0567 µM

AAAGAUUUUUAAGGAUAUGACUCCGAAACGGAGUCAGAAGGUGAGGAUCACCCACCUAGCUCAGGGUCGAAAGACCCUGAGCAA [#SharedSequence - ExNG1-13] (puzzle (switch architecture): Exclusion NG 1)
apparent KD of MS2 coat protein ([2]; input ligand: FMN 200 uM): 0.00948 µM
apparent KD of MS2 coat protein ([2]; input ligand: none): 0.00902 µM

ACAGGUCGUGAGAAGGCGGGUGGCACCGUCGAAAGACGGUGCAAUUAAAAUCUUCGAGGAUCACCCGAGGAUAUCACGACCUGA [#SharedSequence - IExNG2: 17] (puzzle (switch architecture): Inverted Exclusion NG 2)
apparent KD of MS2 coat protein ([2]; input ligand: FMN 200 uM): 0.0286 µM
apparent KD of MS2 coat protein ([2]; input ligand: none): 0.0559 µM

ACUAGAAACGGGCAAUAACACAUGAGGAUCACCCAUGUGACACAGGAUAUAACCAGAUCAGAAAGUUAGAAGGGUGAGCCCGCA [Edraed Mod 1 - Jieux - Same State NG3]
apparent KD of MS2 coat protein ([1]; input ligand: FMN 200 uM): 0.0238 µM
apparent KD of MS2 coat protein ([1]; input ligand: none): 0.0237 µM

AGACCUGCUCAGAAGGCGGAUACGAGGCUGGAAACAGCCUCGUAAUUAAAUCUUCGAGGAUCACCCGAGGAUAUGAGCAGGUCA [#SharedSequence - IExNG2: 13] (puzzle (switch architecture): Inverted Exclusion NG 2)
apparent KD of MS2 coat protein ([2]; input ligand: FMN 200 uM): 0.0284 µM
apparent KD of MS2 coat protein ([2]; input ligand: none): 0.0103 µM

AGAGCUGCUCAGAAGGAGGAUCACCCUUUCGAAAGAAAUACGGAGGCUGAAAAGCCUCCGAAAUUCUAGGAUAUGAGCAGCUCA [#SharedSequence - IExNG2: 7] (puzzle (switch architecture): Inverted Exclusion NG 2)
apparent KD of MS2 coat protein ([2]; input ligand: FMN 200 uM): 0.133 µM
apparent KD of MS2 coat protein ([2]; input ligand: none): 0.167 µM

AUAAUAACUUGAGGAUAUGCUCAGGAAUACUGAGCAGAAGGCAGGGAAACCUGAGGAUCACCCAGGUAAAUAAUAAUAAUAAUA [Same State NG1 - A3C, U17G Submission 1B]
apparent KD of MS2 coat protein ([1]; input ligand: FMN 200 uM): 0.0193 µM
apparent KD of MS2 coat protein ([1]; input ligand: none): 0.0245 µM

AUAAUAACUUGAGGAUAUGCUCAGGAAUACUGAGCAGAAGGCAGGGAAACCUGAGGAUCACCCAGGUAACUGGAAUAAUAAUAA [Same State NG1 - A3C, U17G Submission 4A]
apparent KD of MS2 coat protein ([1]; input ligand: FMN 200 uM): 0.0256 µM
apparent KD of MS2 coat protein ([1]; input ligand: none): 0.0258 µM

AUAAUAACUUGAGGAUAUGCUCAGGAAUACUGAGCAGAAGGCAGGGAAACCUGAGGAUCACCCAGGUGAAUAAUAAUAAUAAUA [Same State NG1 - A3C, U17G Submission 1A]
apparent KD of MS2 coat protein ([1]; input ligand: FMN 200 uM): 0.0183 µM
apparent KD of MS2 coat protein ([1]; input ligand: none): 0.0234 µM

CAUGUCCUCACAGGAUAUGCUGGACUUUGUCCAGCAGAAGGGUGAUAACAUGAGGAUCACCCAUGUGGACAUGAUAUAUUUAAG [Mat - Same State NG 1 - Eli mod - D95]
apparent KD of MS2 coat protein ([1]; input ligand: FMN 200 uM): 0.623 µM
apparent KD of MS2 coat protein ([1]; input ligand: none): 0.106 µM

CCGGAAACGGGUAGCUGACAUGAGGAUCACCCAUGUGAUACACAGGAUAUGGAUCCUAAUUGGAUCCAGAAGGGUGUCAGCUAC [Mat - Same State NG 3 - JL Mod - D84]
apparent KD of MS2 coat protein ([1]; input ligand: FMN 200 uM): 0.13 µM
apparent KD of MS2 coat protein ([1]; input ligand: none): 1.27 µM

CGAGACACUUGAGGAUAUGCUCAGGAAUACUGAGCAGAAGGCAGGAAAACCUGAGGAUCACCCAGGUAACUGGAAAGUCUCGAA [Same State NG1 - A3C, U17G Submission 5E-G46A]
apparent KD of MS2 coat protein ([1]; input ligand: FMN 200 uM): 0.0169 µM
apparent KD of MS2 coat protein ([1]; input ligand: none): 0.0196 µM

CUAAUAUAGUGAGGAUAUGCACAGGAUCACCGUGUAGAAGGCAUCAGGUAGAAGGUGCAGAGGAUCACCCUGUAAGGAUAUACC [pwkr2 ssNG1 DX.4]
apparent KD of MS2 coat protein ([1]; input ligand: FMN 200 uM): 0.0324 µM
apparent KD of MS2 coat protein ([1]; input ligand: none): 0.0694 µM

CUGCAAAUCUUAGGAUAUGCUCAGGAAUACUGAGCAGAAGGAAGAUAUACCUGAGGAUCACCCAGGUAAAACUGGAGCAGAAUA [Same State NG1 - A3C, U17G Submission 8G U68A, U7A]
apparent KD of MS2 coat protein ([1]; input ligand: FMN 200 uM): 0.0243 µM
apparent KD of MS2 coat protein ([1]; input ligand: none): 0.0266 µM

— the supplement of paper PMC9170038
